For series [1], the target named is T1, mitochondrial acetyl-CoA acetyltransferase 1 (ACAT1) (Homo sapiens, UniProt P24752).
T1 sequence (P24752 34-427): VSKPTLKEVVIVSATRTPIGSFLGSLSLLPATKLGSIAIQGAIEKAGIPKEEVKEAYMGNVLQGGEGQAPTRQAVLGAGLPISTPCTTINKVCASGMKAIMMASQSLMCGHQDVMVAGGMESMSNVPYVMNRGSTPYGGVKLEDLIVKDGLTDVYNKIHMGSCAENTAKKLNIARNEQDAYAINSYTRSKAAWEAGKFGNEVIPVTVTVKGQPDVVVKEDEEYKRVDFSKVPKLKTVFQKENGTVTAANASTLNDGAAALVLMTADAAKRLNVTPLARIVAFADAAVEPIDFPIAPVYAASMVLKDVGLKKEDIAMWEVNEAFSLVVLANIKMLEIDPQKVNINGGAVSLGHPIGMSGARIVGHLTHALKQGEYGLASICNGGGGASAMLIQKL
The experiment in a line: SPR. It is filed as binding.

For series [2], the target named is mitochondrial acetyl-CoA acetyltransferase 1 (ACAT1), purified recombinant human, His-tagged (human) (UniProt P24752). The series is described as follows: cryo-EM structure.
Series [3] shares this target. The experiment in a line: negative-stain electron microscopy.
For series [4] the target is unchanged. The series is described as follows: native gel or EMSA. For orientation: A gel shift assay detects complexes by their altered migration in electrophoresis.
The series “native gel or EMSA” concerns the molecule itself. The experiment in a line: native gel or EMSA.

As for `O=C(/C=C/c1ccc(O)c(O)c1)O[C@@H]1C[C@](O)(C(=O)O)C[C@@H](O)[C@H]1O` [CGA, Chlorogenic acid], in series [1], the equilibrium dissociation constant (Kd) is around 2580 nM.

For the molecule “mitochondrial acetyl-CoA acetyltransferase 1 (ACAT1), purified recombinant human, His-tagged (from UniProt P24752 34-427) (enzyme)”, the stoichiometry N in series [2], in series [3] and in series [4] was 4 throughout.

B1: ACAT1, endogenous in A375 human melanoma cells (enzyme, human (endogenous in A375), UniProt P24752 34-427, looked up)
chain: VSKPTLKEVVIVSATRTPIGSFLGSLSLLPATKLGSIAIQGAIEKAGIPKEEVKEAYMGNVLQGGEGQAPTRQAVLGAGLPISTPCTTINKVCASGMKAIMMASQSLMCGHQDVMVAGGMESMSNVPYVMNRGSTPYGGVKLEDLIVKDGLTDVYNKIHMGSCAENTAKKLNIARNEQDAYAINSYTRSKAAWEAGKFGNEVIPVTVTVKGQPDVVVKEDEEYKRVDFSKVPKLKTVFQKENGTVTAANASTLNDGAAALVLMTADAAKRLNVTPLARIVAFADAAVEPIDFPIAPVYAASMVLKDVGLKKEDIAMWEVNEAFSLVVLANIKMLEIDPQKVNINGGAVSLGHPIGMSGARIVGHLTHALKQGEYGLASICNGGGGASAMLIQKL
Regarding B1, the “stoichiometry N” value in “native gel or EMSA” is 4.

As a reminder, the Kd is the concentration at which binding is half-saturated. Higher therefore signals a looser complex. A word on the stoichiometry N: it is a count of units in the complex or per binding partner.

These data come from publication PMC11544177 (Acta Pharmaceutica Sinica. B, 2024).
